Test results reported in the supplement of paper PMC11811203.

B1: THAP1; numbered along this chain (parent)
chain: MVQSCSAYGCKNRYDKDKPVSFHKFPLTRPSLCKEWEAAVRRKNFKPTKYSSICSEHFTPDCFKRECNNKLLKENAVPTIFLCTEPHDKKEDLLEPQEQLPPPPLPPPVSQVDAAIGLLMPPLQTPVNLSVFCDHNYTVEDTMHQRKRIHQLEQQVEKLRKKLKTAQQRCRRQERQLEKLKEVVHFQKEKDDVSERGYVILPNDYFEIVEVPA

Variants of: B1
Experiment: THAP1 transcriptional activity (GFP+/GFP- enrichment relative to wild-type constructs) (ratio to WT); higher = more THAP1 activity (PSMB5 reporter activation)
Conditions: with PSMB5 promoter-GFP reporter
How it was run: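 Activity values are replicate-mean bright/dim read fold changes divided by the mean of wild-type synonymous constructs. They come from a human THAP1 site-saturation library (residues 2–213, each changed to all 20 amino acids) delivered by lentivirus at MOI ~0.3, in duplicate, into THAP1-knockout HEK-293T cells with mClover3 at endogenous PSMB5. BFP+ cells were sorted into GFP-dim and GFP-bright bins after five days, and variants were counted by Illumina sequencing of genomic DNA amplicons.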

THAP1 transcriptional activity: each site, then its substitutions
L94: D 1.28 | E 1.42 | G 1.56 | I 2.23 | M 1.84 | P 1.67 | R 2.34 | S 1.71 | T 1.14 | V 1.47 | W 0.914 | Y 1.34
E95: A 1.46 | C 1.23 | D 1.16 | G 1.26 | H 1.29 | I 1.13 | K 1.66 | L 0.979 | M 0.897 | N 1.31 | P 1.22 | Q 1.81 | R 1.65 | S 1.02 | V 0.815 | Y 1.04
P96: A 1.82 | C 0.965 | D 1.15 | E 0.84 | F 0.885 | G 1.55 | H 0.971 | I 0.683 | K 1.37 | L 1.58 | N 2.72 | Q 0.834 | R 1.45 | S 1.72 | T 1.6 | V 0.729 | W 0.452
Q97: A 0.83 | C 1.33 | D 1.45 | E 1.24 | F 1.2 | G 0.874 | H 0.853 | I 2.53 | K 0.467 | L 1.55 | M 1.09 | N 0.877 | P 1.25 | R 0.945 | S 0.872 | T 1.88 | V 0.752 | W 0.632 | Y 0.765
E98: A 1.51 | C 0.653 | D 1.77 | F 0.462 | G 1.03 | H 0.824 | I 1.74 | K 1.43 | L 0.875 | M 0.62 | N 1.21 | P 0.816 | Q 1.69 | R 0.908 | S 1.19 | T 1.66 | V 1.56 | W 0.567 | Y 0.675
Q99: A 0.795 | C 0.535 | D 0.731 | E 1.22 | F 0.667 | G 1.87 | H 1.07 | I 1.32 | K 1.5 | L 1.11 | N 2.66 | P 1.81 | R 1.3 | S 0.884 | T 1.16 | V 0.773 | W 0.514
L100: A 1.25 | C 0.796 | D 1.66 | G 0.906 | H 0.606 | I 1.56 | K 1.18 | M 2.37 | P 1.9 | Q 1.41 | R 1.46 | S 2.08 | T 1.6 | V 1.84 | W 0.65 | Y 0.692
P101: A 1.1 | C 0.582 | F 0.64 | G 1.27 | H 0.968 | I 1.27 | K 1.21 | L 1.19 | N 3.11 | Q 1.61 | R 1.3 | S 1.96 | T 1.5 | V 0.772 | W 0.985 | Y 1.08
P102: A 1.01 | C 1.36 | D 2 | E 1.85 | F 0.858 | G 2.33 | H 1.04 | I 1.31 | L 1.12 | M 0.907 | N 1.12 | Q 3.01 | R 1.43 | S 1.09 | T 0.743 | V 2.39 | W 1.02
P103: D 1.44 | E 1.22 | F 0.27 | H 0.719 | K 1.31 | L 1.61 | M 0.728 | N 0.938 | Q 1.15 | R 1.56 | S 1.1 | T 1.19 | V 1.04 | W 0.806 | Y 0.902
P104: A 1.09 | C 0.986 | D 6.01
